Substrate in the data set: O=[N+]([O-])c1ccc(O)cc1
The data set can be described thus: cells, lysate or membranes named. The following applies: other: PNPH; CI 95% confidence interval; pH 7.4; 37.0 °C.

Procedure: Briefly, liver samples were homogenised in 10 mM Tris-HCl, 250 mM sucrose (pH7.4) and centrifuged for 10 minutes at 10.000×g. Afterwards, CaCl2 to a final concentration of 8 mM was added to the supernatant, and the samples were centrifuged at 25.000×g for 30 minutes. The protein concentrations of the microsomal fraction (pellet) were determined with a commercially available kit (Bio-Rad laboratories) according to the manufacturer's instructions and bovine serum albumin was used as standard. The prepared microsomes were diluted to a final protein concentration of 4 mg/ml and stored at –80°C before analysis. All procedures were done on ice.
Briefly, microsomes were incubated together with the appropriate type of substrate and NADPH at 37°C. The resulting production of resorufin or p-nitrochetecol was measured by HPLC. For studying inhibition, steroids were additionally added to the microsomes. Inhibition studies were performed using a pool of microsomes from three male pigs. […] All steroids were dissolved in methanol. The final concentration of methanol was below 0.1% in the reaction volumes. The same amount of methanol was added to the blank incubations. For the kinetic studies, the activities were determined with substrate concentrations ranging from 0.1 to 4.0µM for EROD and MROD, and from 0.01 to 2mM for PNPH. Kinetic studies were performed under linear conditions. […]

B1: CYP2E1 (Sus scrofa) (protein)
chain: MTALGITVALLVWLVTLLLISIWKHIHSSWKLPPGPFPLPIVGNIFQLDLKNIPKSFTMLAERYGPVFTVYLGSRRIVVLHGYKAVKEVLLHYKNEFSGRGEIPTFQVHKDKGVIFNNGPTWRDTRRFSLTTLRDFGMGKQGNEQRIQREAHFLLEALRKTHGQPFDPTFLIGCAPCNVISDILFRQHFDYNDKTCLRLMSMFNENFYLLSTGWIQLYNNFSGYLRYLPGSHRKLMKNISEIKDYALERVKDHRDSLEPSCPRDFTDTLLMEMEKEKYSAEPIYTLDNIAVTVADMFFAGTETTSTTLRYGLLILMKYPEVEEKLHEEIDRVIGPNRIPAIKDRLVMPYLDAVVHEIQRFIDLIPSNLPHEATRDTDFRDYIIPKGTVVIPTLDSVLYDSQEFPEPEKFKPEHFLNENGKFKYSDHFKAFSAGKRVCVGEGLARMELFLFMAAILQHFNLKSLVDPKDIDLSPIAIGFAKIPPHYKLCVIPRSQV
Regarding B1, the Km is given as 0.33 (0.214–0.452) µM.

The values above are taken from article PMC3131678.
